The labels stand for the following.
B1: SP4D (peptide)
chain: KESALRKXDLYXKFDPLLRDS
modifications: N-terminal FAM; X557 and X561 are (S)-2-(4-pentenyl)alanine joined as i,i+4 hydrocarbon staple; staple position and limits inferred from Opt SP TACC3 (KESALRK*ELL*…), exact sequence only in Fig 3A
B2: clathrin heavy chain minimal ankle region (CHC^ankle, aa 358–574) (domain or fragment)
chain: AGAEELFARKFNALFAQGNYSEAAKVAANAPKGILRTPDTIRRFQSVPAQPGQTSPLLQYFGILLDQGQLNKYESLELCRPVLQQGRKQLLEKWLKEDKLECSEELGDLVKSVDPTLALSVYLRANVPNKVIQCFAETGQVQKIVLYAKKVGYTPDWIFLLRNVMRISPDQGQQFAQMLVQDEEPLADITQIVDVFMEYNLIQQCTAFLLDALKNNR
B3: biotinylated Avi-tagged ankle region of clathrin (aa 358–574) (domain or fragment)
chain: B2 chain
modifications: biotin
B4: K507A-CHC^ankle (domain or fragment)
chain: B2 chain with K150A
B5: Opt SP TACC3 (designed binder)
chain: {FAM}-KESALRKLELLLEFDPLFRDS
modifications: staple (positions not given here); not fully specified (residues 8, 12, bridges); also: (S)-2-(4-pentenyl)alanine at 557 and 561 not placed in the given letters

Assay [1] deals with B3. In words: SPR.
Assay [2] deals with B3. In words: SPR.
Assay [3] addresses B4. In words: FP.
The target of assay [4] is B4. In words: FP. The source holds these as a separate data set.
Assay [5] addresses B2. In words: FP.
In assay [6] the target is B2. The experiment in a line: FP.
In the next assay the target is SP6E. In words: FP.
The next assay has as its target P1. In words: FP.
The target of a further assay is SP1. In words: FP.
For a further assay, the target named is SP2. In words: FP.
Assay [7] has as its target T1, SP4E (human, UniProt Q9Y6A5, two (S)-2-(4-pentenyl)alanine, stapled; FAM on the N-terminus). The experiment in a line: FP.
The target in another assay is P2. In words: FP.
The target in the next assay is SP3E. In words: FP.
Another assay deals with SP6D. The experiment in a line: FP.
A further assay deals with SP3D. The experiment in a line: FP.
A further assay has as its target Opt P1 (S558D). In words: FP.
For a further assay, the target named is Opt P4 (S558E). The experiment in a line: FP.
Another assay deals with Opt P6 (pS558). In words: FP.
The target in another assay is Opt P4 (S558D). The experiment in a line: FP.
A further assay has as its target Opt P2 (S558E). In words: FP.
In a further assay the target is Opt P6 (S558E). The experiment in a line: FP.
The next assay concerns the target Opt P7 (S558E). In words: FP.
A further assay deals with Opt P3 (S558D). In words: FP.
The next assay concerns the target Opt P7 (S558D). The experiment in a line: FP.
The next assay concerns the target Opt P4 (pS558). In words: FP.
The next assay concerns the target Opt P5 (S558E). In words: FP.
For the next assay, the target named is Opt P6 (S558D). In words: FP.
The target in the next assay is Opt P7 (pS558). In words: FP.
Another assay addresses Opt P1 (pS558). The experiment in a line: FP.
The target in the next assay is Opt P5 (pS558). In words: FP.
The next assay deals with Opt P8 (pS558). The experiment in a line: FP.
The target of the next assay is Opt P9 (S558E). In words: FP.
A further assay deals with Opt P1 (S558E). The experiment in a line: FP.
In another assay the target is Opt P2 (S558D). The experiment in a line: FP.
A further assay has as its target Opt P5 (S558D). The experiment in a line: FP.
The next assay deals with Opt P3 (S558E). The experiment in a line: FP.
Another assay has as its target Opt P8 (S558E). In words: FP.
A further assay concerns the target Opt P2 (pS558). In words: FP.
The target of the next assay is Opt P9 (S558D). In words: FP.
The next assay has as its target Opt P3 (pS558). The experiment in a line: FP.
The next assay deals with Opt P9 (pS558). The experiment in a line: FP.
The next assay has as its target Opt P8 (S558D). In words: FP.
Assay [8] addresses T1, SP4E. The experiment in a line: SPR.

Where a chain is given by its changes, count along the chain named. Names may count otherwise. Read-outs that look alike come from different tables or passages of the source. Positions of bridges follow the written chain, without caps; N, C: chain ends. Non-standard residues stand in square brackets, D forms with d. Primed or numbered codes have the meaning given here. No end group written: not given here. FAM″ = 5(6)-carboxyfluorescein label; pS = N[C@@H](COP(=O)(O)O)C(=O)O; FAM = 5(6)-carboxyfluorescein; S5 = C=CCCC[C@](C)(N)C(=O)O; PEG3′ = PEG3 linker

Chain of K507A-CHC^ankle (Q00610 358-574 K507A): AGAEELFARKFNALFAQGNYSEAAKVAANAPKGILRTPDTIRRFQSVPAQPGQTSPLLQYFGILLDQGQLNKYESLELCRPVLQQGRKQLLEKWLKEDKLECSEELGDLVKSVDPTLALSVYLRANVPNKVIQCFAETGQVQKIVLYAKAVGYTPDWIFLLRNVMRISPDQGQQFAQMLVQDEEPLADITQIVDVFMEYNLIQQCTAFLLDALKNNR

For {FAM}-FKESALRKQ[pS]LYLKFDPLLRDS [FAM-pTACC3 CID peptide (aa 549–570), phosphorylated at S558], in [1], the koff is 1.4 s⁻¹. The Kd came to 23 µM in assay [2] and 22 µM with K507A-CHC^ankle [3].
{FAM″}-KESALRK[S5]ELL[S5]EADPAFRDS-NH2 (staple 8-12) [negative control SP TACC3 (F563A & L566A)] registered a Kd in the assay with K507A-CHC^ankle [4] of 280 µM.
Molecule {FAM}-KESALRKQDLYLKFDPLLR [WT TACC3 S558D] gave a Kd in assay [5] of 339 µM.
B1: the values for the Kd (with K507A-CHC^ankle [4]; in [6]) were 5.2 µM and 39 µM, respectively.
B2: the Kd with SP6E came to 54 µM; with P1 it was 105 µM; with SP1, 22 µM; in the assay with SP2 it was 145 µM; with SP4E [7] it was 34 µM; with P2, 160 µM. For the same molecule, the Kd in the assay with SP3E came to 78 µM; with SP6D, 74 µM; in the assay with SP3D, 92 µM; in the assay with Opt P1 (S558D), 6.3 µM; with Opt P4 (S558E), 6.1 µM; with Opt P6 (pS558), 1.8 µM. In addition, the Kd with Opt P4 (S558D) amounted to 6.5 µM; with Opt P2 (S558E), 1.3 µM; with Opt P6 (S558E), 2.8 µM; with Opt P7 (S558E), 10.1 µM; in the assay with Opt P3 (S558D), 22.8 µM; with Opt P7 (S558D) it was 16.2 µM. The Kd in the assay with Opt P4 (pS558) is 7.1 µM; with Opt P5 (S558E) it was 6.7 µM; with Opt P6 (S558D) it was 5.5 µM; with Opt P7 (pS558) it was 4.4 µM; with Opt P1 (pS558), 1.7 µM; with Opt P5 (pS558), 5 µM. Also, the Kd with Opt P8 (pS558) was 15 µM; with Opt P9 (S558E), 23.4 µM; with Opt P1 (S558E), 2.4 µM; in the assay with Opt P2 (S558D), 3.3 µM; in the assay with Opt P5 (S558D), 16 µM; with Opt P3 (S558E), 13 µM. For the same molecule, the Kd with Opt P8 (S558E) is 13 µM; with Opt P2 (pS558), 1.2 µM; with Opt P9 (S558D), 24.5 µM; in the assay with Opt P3 (pS558), 3.3 µM; with Opt P9 (pS558) it was 9.5 µM; with Opt P8 (S558D), 30 µM.
For the molecule B3, in the assay with SP4E [8], the affinity, expressed as Kd, was 2.8 µM and the koff is 0.46 s⁻¹.
For the molecule B4, the Kd turned out to be 53 µM with SP6E; 37 µM with P1; 23 µM in the assay with SP2; 3.7 µM with SP4E [7]; 19 µM in the assay with P2; 22 µM with SP3E. For the same molecule, the figures for the Kd with SP6D and in the assay with SP3D were 44 µM and 23 µM, respectively.
On to {FAM-PEG3′}-KESALRK[S5]ELL[S5]EFDPLFRDS (designed binder, staple 8-12) [Opt PEG3 SP TACC3], for which the Kd was 0.178 µM with K507A-CHC^ankle [4] and 0.12 µM in assay [6].
On to B5, for which, in [1], the koff was found to be 0.04 s⁻¹. In addition, the Kd in assay [2] was found to be 0.03 µM; in the assay with K507A-CHC^ankle [4] it was 0.19 µM; in assay [6], 0.136 µM.
For the molecule {FAM″}-KESALRKQDLY[S5]KFD[S5]LLRDS-NH2 (staple 12-16) [SP5D], the Kd turned out to be 152 µM in the assay with K507A-CHC^ankle [4] and 361 µM in assay [6].
Take {FAM″}-KESALRKQELY[S5]KFD[S5]LLRDS-NH2 (staple 12-16) [SP5E]: the Kd with K507A-CHC^ankle [4] was found to be 146 µM; in assay [6], 234 µM.
